± gives the uncertainty stated by the source.
B1: DnaJ homolog subfamily C member 2, residues 451 to 503; numbered along this chain, Q99543 (parent)
chain: SKNWSEDDLQLLIKAVNLFPAGTNSRWEVIANYMNIHSSSGVKRTAKDVIGKA

Variants of: B1
Assay: abundance fitness (aPCA) (normalised: wild type 0, dead -1); higher = more abundant; growth selection in yeast, the domain comes from the species named
Settings: Homo sapiens

Variant	abundance fitness
SKNWSEDDLQLLIKAVGLFPAGTNSRWEVIANYMNIHSSSGVKRTAKDVIGKA [N17G]	-0.082 ± 0.057
SKNWSEDDLQLLIKAVQLFPAGTNSRWEVIANYMNIHSSSGVKRTAKDVIGKA [N17Q]	-0.157 ± 0.073
SKNWSEDDLQLLIKAVPLFPAGTNSRWEVIANYMNIHSSSGVKRTAKDVIGKA [N17P]	-0.875 ± 0.11
SKNWSEDDLQLLIKAVFLFPAGTNSRWEVIANYMNIHSSSGVKRTAKDVIGKA [N17F]	-0.353 ± 0.13
SKNWSEDDLQLLIKAVDLFPAGTNSRWEVIANYMNIHSSSGVKRTAKDVIGKA [N17D]	0.12 ± 0.094
SKNWSEDDLQLLIKAVILFPAGTNSRWEVIANYMNIHSSSGVKRTAKDVIGKA [N17I]	-0.384 ± 0.095
SKNWSEDDLQLLIKAVKLFPAGTNSRWEVIANYMNIHSSSGVKRTAKDVIGKA [N17K]	-0.043 ± 0.095
SKNWSEDDLQLLIKAVALFPAGTNSRWEVIANYMNIHSSSGVKRTAKDVIGKA [N17A]	-0.085 ± 0.061
SKNWSEDDLQLLIKAVHLFPAGTNSRWEVIANYMNIHSSSGVKRTAKDVIGKA [N17H]	-0.158 ± 0.12
SKNWSEDDLQLLIKAVLLFPAGTNSRWEVIANYMNIHSSSGVKRTAKDVIGKA [N17L]	-0.216 ± 0.062
SKNWSEDDLQLPIKAVNLFPAGTNSRWEVIANYMNIHSSSGVKRTAKDVIGKA [L12P]	-0.719 ± 0.085
SKNWSEDDLQLWIKAVNLFPAGTNSRWEVIANYMNIHSSSGVKRTAKDVIGKA [L12W]	-0.177 ± 0.062
SKNWSEDDLQLYIKAVNLFPAGTNSRWEVIANYMNIHSSSGVKRTAKDVIGKA [L12Y]	-0.168 ± 0.091
SKNWSEDDLQLTIKAVNLFPAGTNSRWEVIANYMNIHSSSGVKRTAKDVIGKA [L12T]	-0.907 ± 0.087
SKNWSEDDLQLIIKAVNLFPAGTNSRWEVIANYMNIHSSSGVKRTAKDVIGKA [L12I]	-0.456 ± 0.096
SKNWSEDDLQLKIKAVNLFPAGTNSRWEVIANYMNIHSSSGVKRTAKDVIGKA [L12K]	-0.97 ± 0.098
SKNWSEDDLQLDIKAVNLFPAGTNSRWEVIANYMNIHSSSGVKRTAKDVIGKA [L12D]	-0.97 ± 0.11
SKNWSEDDLQLMIKAVNLFPAGTNSRWEVIANYMNIHSSSGVKRTAKDVIGKA [L12M]	-0.223 ± 0.084
SKNWSEDDLQLAIKAVNLFPAGTNSRWEVIANYMNIHSSSGVKRTAKDVIGKA [L12A]	-0.617 ± 0.067
SKNWSEDDLQLNIKAVNLFPAGTNSRWEVIANYMNIHSSSGVKRTAKDVIGKA [L12N]	-0.875 ± 0.13
SKNWSEDDLQLCIKAVNLFPAGTNSRWEVIANYMNIHSSSGVKRTAKDVIGKA [L12C]	-0.667 ± 0.082
SKNWSEDDLQLEIKAVNLFPAGTNSRWEVIANYMNIHSSSGVKRTAKDVIGKA [L12E]	-0.952 ± 0.092
SKNWSEDDLQLQIKAVNLFPAGTNSRWEVIANYMNIHSSSGVKRTAKDVIGKA [L12Q]	-0.894 ± 0.11
SKNWSEDDLQLSIKAVNLFPAGTNSRWEVIANYMNIHSSSGVKRTAKDVIGKA [L12S]	-0.802 ± 0.067
SKNWSEDDLQLGIKAVNLFPAGTNSRWEVIANYMNIHSSSGVKRTAKDVIGKA [L12G]	-0.779 ± 0.057

Variant	abundance fitness
SKNWSEDDLQLRIKAVNLFPAGTNSRWEVIANYMNIHSSSGVKRTAKDVIGKA [L12R]	-0.796 ± 0.058
SKNWSEDDLQLVIKAVNLFPAGTNSRWEVIANYMNIHSSSGVKRTAKDVIGKA [L12V]	-0.511 ± 0.059
SKNWSEDDLQLLTKAVNLFPAGTNSRWEVIANYMNIHSSSGVKRTAKDVIGKA [I13T]	-0.141 ± 0.072
SKNWSEDDLQLLYKAVNLFPAGTNSRWEVIANYMNIHSSSGVKRTAKDVIGKA [I13Y]	-0.038 ± 0.076
SKNWSEDDLQLLVKAVNLFPAGTNSRWEVIANYMNIHSSSGVKRTAKDVIGKA [I13V]	-0.033 ± 0.057
SKNWSEDDLQLLSKAVNLFPAGTNSRWEVIANYMNIHSSSGVKRTAKDVIGKA [I13S]	0.073 ± 0.054
SKNWSEDDLQLLQKAVNLFPAGTNSRWEVIANYMNIHSSSGVKRTAKDVIGKA [I13Q]	0.131 ± 0.08
SKNWSEDDLQLLDKAVNLFPAGTNSRWEVIANYMNIHSSSGVKRTAKDVIGKA [I13D]	0.142 ± 0.078
SKNWSEDDLQLLMKAVNLFPAGTNSRWEVIANYMNIHSSSGVKRTAKDVIGKA [I13M]	0.021 ± 0.069
SKNWSEDDLQLLHKAVNLFPAGTNSRWEVIANYMNIHSSSGVKRTAKDVIGKA [I13H]	0.042 ± 0.1
SKNWSEDDLQLLWKAVNLFPAGTNSRWEVIANYMNIHSSSGVKRTAKDVIGKA [I13W]	0.058 ± 0.064
SKNWSEDDLQLLRKAVNLFPAGTNSRWEVIANYMNIHSSSGVKRTAKDVIGKA [I13R]	0.086 ± 0.054
SKNWSEDDLQLLLKAVNLFPAGTNSRWEVIANYMNIHSSSGVKRTAKDVIGKA [I13L]	0.085 ± 0.058
SKNWSEDDLQLLNKAVNLFPAGTNSRWEVIANYMNIHSSSGVKRTAKDVIGKA [I13N]	-0.097 ± 0.11
SKNWSEDDLQLLCKAVNLFPAGTNSRWEVIANYMNIHSSSGVKRTAKDVIGKA [I13C]	-0.147 ± 0.082
SKNWSEDDLQLLKKAVNLFPAGTNSRWEVIANYMNIHSSSGVKRTAKDVIGKA [I13K]	0.053 ± 0.074
SKNWSEDDLQLLGKAVNLFPAGTNSRWEVIANYMNIHSSSGVKRTAKDVIGKA [I13G]	0.099 ± 0.054
SKNWSEDDLQLLFKAVNLFPAGTNSRWEVIANYMNIHSSSGVKRTAKDVIGKA [I13F]	0.039 ± 0.083
SKNWSEDDLQLLPKAVNLFPAGTNSRWEVIANYMNIHSSSGVKRTAKDVIGKA [I13P]	-0.537 ± 0.079
SKNWSEDDLQLLAKAVNLFPAGTNSRWEVIANYMNIHSSSGVKRTAKDVIGKA [I13A]	0.14 ± 0.065
SKNWSEDDLQLLEKAVNLFPAGTNSRWEVIANYMNIHSSSGVKRTAKDVIGKA [I13E]	-0.006 ± 0.068
SKNWSEDDLQLLIKARNLFPAGTNSRWEVIANYMNIHSSSGVKRTAKDVIGKA [V16R]	0.002 ± 0.055
SKNWSEDDLQLLIKAANLFPAGTNSRWEVIANYMNIHSSSGVKRTAKDVIGKA [V16A]	-0.164 ± 0.062
SKNWSEDDLQLLIKASNLFPAGTNSRWEVIANYMNIHSSSGVKRTAKDVIGKA [V16S]	-0.054 ± 0.06
